Values quoted from earlier work as cited in paper PMC3417803.
Like-named read-outs stand apart in the source and are kept apart here.

Experiments:
[1] = biological target: Midkine (Homo sapiens) (UniProt P21741)
[2] = biological target: Midkine (Homo sapiens) (UniProt P21741); remark: listed apart in the source

UniProt P21741, sequence (P21741 21-143): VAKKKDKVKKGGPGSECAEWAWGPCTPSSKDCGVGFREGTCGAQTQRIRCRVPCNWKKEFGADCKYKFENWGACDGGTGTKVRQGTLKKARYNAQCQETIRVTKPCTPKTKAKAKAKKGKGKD

Kd [1]: 0.56 nM
Kd [2]: 8.8 nM
Substance: PTPζ (from UniProt P23471)
